The target of the data set is SF2/ASF (ΔRS domain) (UniProt Q07955 1-196). As to the kind of experiment: EMSA.
Sequence of SF2/ASF (ΔRS domain) (Q07955 1-196, stated change not applied): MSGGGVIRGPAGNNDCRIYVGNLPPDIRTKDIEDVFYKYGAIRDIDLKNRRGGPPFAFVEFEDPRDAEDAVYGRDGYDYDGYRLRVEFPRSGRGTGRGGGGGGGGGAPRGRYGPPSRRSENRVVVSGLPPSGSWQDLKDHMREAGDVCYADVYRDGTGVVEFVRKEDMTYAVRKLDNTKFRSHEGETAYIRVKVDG

B1: CD200 exon 2 RNA with wild-type ESE (ssRNA)
RNA: GUGAUCAGGAUGCCCUUCUC
B1: the binding result is reported as “binds”.

Source of the values: article PMC2965252.
